# System: Escherichia coli TOP10
# Assay: shrunken log2 fold change of peptide-encoding DNA abundance (4.5 h post-induction vs induction); higher = less antimicrobial activity (less host growth inhibition)
# Settings: time post-induction: 4.5 h; library: site-saturation at positions 5, 18, 19, 20
# 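Further: peptides expressed intracellularly from a pBAD plasmid library in pooled LB shake-flask culture, induced with 0.3% L-arabinose, DNA abundance read by NGS, three biological replicates, DESeq2 with apeglm shrinkage.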
row,Sequence,shrunken log2 fold change
1,RRIRYRPPRLPRPRPRPKQHPRP,-0.304
2,RRIRYRPPRLPRPRPRPKQNPRP,-0.473
3,RRIRYRPPRLPRPRPRPKQPPRP,0.102
4,RRIRYRPPRLPRPRPRPKRHPRP,-0.159
5,RRIRYRPPRLPRPRPRPKRSPRP,-0.113
6,RRIRYRPPRLPRPRPRPKRTPRP,-0.0162
7,RRIRYRPPRLPRPRPRPKVTPRP,-0.114
8,RRIRYRPPRLPRPRPRPKWAPRP,-0.0552
9,RRIRYRPPRLPRPRPRPKWKPRP,-0.0135
10,RRIRYRPPRLPRPRPRPKWTPRP,-0.298
11,RRIRYRPPRLPRPRPRPKYKPRP,-0.78
12,RRIRYRPPRLPRPRPRPLCCPRP,-0.391
13,RRIRYRPPRLPRPRPRPLCNPRP,-0.0925
14,RRIRYRPPRLPRPRPRPLDCPRP,-0.068
15,RRIRYRPPRLPRPRPRPLDRPRP,-0.182
16,RRIRYRPPRLPRPRPRPLEKPRP,0.0601
17,RRIRYRPPRLPRPRPRPLFWPRP,-0.214
18,RRIRYRPPRLPRPRPRPLGKPRP,-0.192
19,RRIRYRPPRLPRPRPRPLHPPRP,-0.0607
20,RRIRYRPPRLPRPRPRPLKHPRP,-1.82
21,RRIRYRPPRLPRPRPRPLLLPRP,-0.586
22,RRIRYRPPRLPRPRPRPLLTPRP,-0.647
23,RRIRYRPPRLPRPRPRPLQFPRP,-0.537
24,RRIRYRPPRLPRPRPRPLQMPRP,-0.209
25,RRIRYRPPRLPRPRPRPLRTPRP,-0.151

row,Sequence,shrunken log2 fold change
1,RRIRYRPPRLPRPRPRPLSAPRP,-0.542
2,RRIRYRPPRLPRPRPRPLSMPRP,-0.036
3,RRIRYRPPRLPRPRPRPLTGPRP,-0.023
4,RRIRYRPPRLPRPRPRPLVCPRP,-0.325
5,RRIRYRPPRLPRPRPRPLVYPRP,-1.16
6,RRIRYRPPRLPRPRPRPLWGPRP,-0.203
7,RRIRYRPPRLPRPRPRPMADPRP,-0.0453
8,RRIRYRPPRLPRPRPRPMCEPRP,-0.283
9,RRIRYRPPRLPRPRPRPMCIPRP,-0.101
10,RRIRYRPPRLPRPRPRPMCKPRP,-0.368
11,RRIRYRPPRLPRPRPRPMCLPRP,-0.0113
12,RRIRYRPPRLPRPRPRPMDFPRP,-0.205
13,RRIRYRPPRLPRPRPRPMFAPRP,-0.117
14,RRIRYRPPRLPRPRPRPMFIPRP,-0.908
15,RRIRYRPPRLPRPRPRPMFNPRP,-1.14
16,RRIRYRPPRLPRPRPRPMFQPRP,-0.136
17,RRIRYRPPRLPRPRPRPMGDPRP,-0.0018
18,RRIRYRPPRLPRPRPRPMIKPRP,0.0227
19,RRIRYRPPRLPRPRPRPMLFPRP,-0.347
20,RRIRYRPPRLPRPRPRPMPAPRP,0.348
21,RRIRYRPPRLPRPRPRPMPHPRP,-0.202
22,RRIRYRPPRLPRPRPRPMPPPRP,-0.331
23,RRIRYRPPRLPRPRPRPMQCPRP,-0.00134
24,RRIRYRPPRLPRPRPRPMQLPRP,0.219
25,RRIRYRPPRLPRPRPRPMQTPRP,-0.0135

row,Sequence,shrunken log2 fold change
1,RRIRYRPPRLPRPRPRPMRNPRP,0.174
2,RRIRYRPPRLPRPRPRPMTNPRP,-1.55
3,RRIRYRPPRLPRPRPRPMTYPRP,-0.0131
4,RRIRYRPPRLPRPRPRPMVSPRP,-0.00277
5,RRIRYRPPRLPRPRPRPMWYPRP,-0.884
6,RRIRYRPPRLPRPRPRPNCAPRP,-0.214
7,RRIRYRPPRLPRPRPRPNCIPRP,-0.197
8,RRIRYRPPRLPRPRPRPNCTPRP,-0.126
9,RRIRYRPPRLPRPRPRPNFHPRP,-0.612
10,RRIRYRPPRLPRPRPRPNFMPRP,-0.821
11,RRIRYRPPRLPRPRPRPNFSPRP,-0.401
12,RRIRYRPPRLPRPRPRPNGRPRP,-0.311
13,RRIRYRPPRLPRPRPRPNHEPRP,-0.657
14,RRIRYRPPRLPRPRPRPNHPPRP,-0.125
15,RRIRYRPPRLPRPRPRPNILPRP,-1.9
16,RRIRYRPPRLPRPRPRPNISPRP,-0.513
17,RRIRYRPPRLPRPRPRPNKWPRP,0.0191
18,RRIRYRPPRLPRPRPRPNLVPRP,-0.0754
19,RRIRYRPPRLPRPRPRPNPEPRP,-0.0105
20,RRIRYRPPRLPRPRPRPNPNPRP,-0.735
21,RRIRYRPPRLPRPRPRPNQNPRP,-0.967
22,RRIRYRPPRLPRPRPRPNRIPRP,-0.815
23,RRIRYRPPRLPRPRPRPNRQPRP,-0.053
24,RRIRYRPPRLPRPRPRPNSMPRP,-1.77
25,RRIRYRPPRLPRPRPRPNTMPRP,-1.1

row,Sequence,shrunken log2 fold change
1,RRIRYRPPRLPRPRPRPNTNPRP,-1.09
2,RRIRYRPPRLPRPRPRPNTQPRP,-0.17
3,RRIRYRPPRLPRPRPRPNVAPRP,-0.0308
4,RRIRYRPPRLPRPRPRPNVKPRP,-0.386
5,RRIRYRPPRLPRPRPRPNYQPRP,-0.79
6,RRIRYRPPRLPRPRPRPPARPRP,0.119
7,RRIRYRPPRLPRPRPRPPCVPRP,0.0199
8,RRIRYRPPRLPRPRPRPPDLPRP,-0.212
9,RRIRYRPPRLPRPRPRPPEQPRP,0.357
10,RRIRYRPPRLPRPRPRPPFEPRP,-0.0385
11,RRIRYRPPRLPRPRPRPPIDPRP,-0.35
12,RRIRYRPPRLPRPRPRPPISPRP,-0.501
13,RRIRYRPPRLPRPRPRPPIVPRP,-0.756
14,RRIRYRPPRLPRPRPRPPMDPRP,-0.582
15,RRIRYRPPRLPRPRPRPPNHPRP,-0.626
16,RRIRYRPPRLPRPRPRPPQIPRP,-0.178
17,RRIRYRPPRLPRPRPRPPQRPRP,0.00441
18,RRIRYRPPRLPRPRPRPPRIPRP,-0.0175
19,RRIRYRPPRLPRPRPRPPRLPRP,0.0944
20,RRIRYRPPRLPRPRPRPPRPPRP,0.637
21,RRIRYRPPRLPRPRPRPPSQPRP,0.0859
22,RRIRYRPPRLPRPRPRPPVHPRP,-0.0526
23,RRIRYRPPRLPRPRPRPPWPPRP,0.405
24,RRIRYRPPRLPRPRPRPPYAPRP,-0.265
25,RRIRYRPPRLPRPRPRPPYKPRP,-0.23

row,Sequence,shrunken log2 fold change
1,RRIRYRPPRLPRPRPRPPYVPRP,-0.266
2,RRIRYRPPRLPRPRPRPQCEPRP,-0.0652
3,RRIRYRPPRLPRPRPRPQCMPRP,-0.931
4,RRIRYRPPRLPRPRPRPQELPRP,-0.00884
5,RRIRYRPPRLPRPRPRPQEPPRP,-0.273
6,RRIRYRPPRLPRPRPRPQFAPRP,0.0437
7,RRIRYRPPRLPRPRPRPQGAPRP,-0.238
8,RRIRYRPPRLPRPRPRPQHCPRP,-0.0601
9,RRIRYRPPRLPRPRPRPQIRPRP,-0.00839
10,RRIRYRPPRLPRPRPRPQKDPRP,-0.177
11,RRIRYRPPRLPRPRPRPQKPPRP,-0.0745
12,RRIRYRPPRLPRPRPRPQKTPRP,-0.0404
13,RRIRYRPPRLPRPRPRPQKVPRP,-0.209
14,RRIRYRPPRLPRPRPRPQNMPRP,-1.33
15,RRIRYRPPRLPRPRPRPQNTPRP,-1.07
16,RRIRYRPPRLPRPRPRPQSGPRP,-0.223
17,RRIRYRPPRLPRPRPRPQSTPRP,-1.2
18,RRIRYRPPRLPRPRPRPQTPPRP,-0.203
19,RRIRYRPPRLPRPRPRPQVFPRP,0.0195
20,RRIRYRPPRLPRPRPRPQWCPRP,-0.219
21,RRIRYRPPRLPRPRPRPQYHPRP,-0.873
22,RRIRYRPPRLPRPRPRPQYIPRP,0.0111
23,RRIRYRPPRLPRPRPRPQYMPRP,-0.192
24,RRIRYRPPRLPRPRPRPRAQPRP,0.174
25,RRIRYRPPRLPRPRPRPRCEPRP,0.076

row,Sequence,shrunken log2 fold change
1,RRIRYRPPRLPRPRPRPRDFPRP,-0.161
2,RRIRYRPPRLPRPRPRPRDWPRP,0.0703
3,RRIRYRPPRLPRPRPRPREYPRP,0.0168
4,RRIRYRPPRLPRPRPRPRFGPRP,0.345
5,RRIRYRPPRLPRPRPRPRFHPRP,-0.939
6,RRIRYRPPRLPRPRPRPRGWPRP,0.575
7,RRIRYRPPRLPRPRPRPRHHPRP,-0.846
8,RRIRYRPPRLPRPRPRPRHNPRP,-0.477
9,RRIRYRPPRLPRPRPRPRHYPRP,-0.974
10,RRIRYRPPRLPRPRPRPRKHPRP,-0.483
11,RRIRYRPPRLPRPRPRPRLSPRP,-0.0417
12,RRIRYRPPRLPRPRPRPRMIPRP,-0.118
13,RRIRYRPPRLPRPRPRPRNEPRP,-0.0133
14,RRIRYRPPRLPRPRPRPRPEPRP,0.254
15,RRIRYRPPRLPRPRPRPRPPPRP,1.01
16,RRIRYRPPRLPRPRPRPRSHPRP,-0.267
17,RRIRYRPPRLPRPRPRPRSKPRP,-0.439
18,RRIRYRPPRLPRPRPRPRSLPRP,-0.0256
19,RRIRYRPPRLPRPRPRPRTKPRP,0.011
20,RRIRYRPPRLPRPRPRPRVVPRP,-0.405
21,RRIRYRPPRLPRPRPRPRWAPRP,-0.0106
22,RRIRYRPPRLPRPRPRPRWKPRP,-0.295
23,RRIRYRPPRLPRPRPRPRWNPRP,-0.102
24,RRIRYRPPRLPRPRPRPSAIPRP,-0.939
25,RRIRYRPPRLPRPRPRPSARPRP,-0.137
